Measured values published in paper PMC5347741.

Assay: immunohistochemistry, nude mouse xenograft
Conditions: glycan changed form; control: untransfected CAOV3 cells

B1: CD147: FUT1 transfection (CA-FUT1) (protein)
parent chain: MAAALFVLLGFALLGTHGASGAAGTVFTTVEDLGSKILLTCSLNDSATEVTGHRWLKGGVVLKEDALPGQKTEFKVDSDDQWGEYSCVFLPEPMGTANIQLHGPPRVKAVKSSEHINEGETAMLVCKSESVPPVTDWAWYKITDSEDKALMNGSESRFFVSSSQGRSELHIENLNMEADPGQYRCNGTSSKGSDQAIITLRVRSHLAALWPFLGIVAEVLVLVTIIFIYEKRRKPEDVLDDDDAGSAPLKSSGQHQNDKGKNVRQRNSS
expression_or_secretion: increases
